From paper PMC10373194, “Determination of the Dissociation Constant for Polyvalent Receptors Using ELISA: A Case of M13 Phages Displaying Troponin T-Specific Peptides” (ACS Omega, 2023) come the findings set out here.

Several values for one entry are separate records, joined by “and”; a condition that tells them apart may be missing. Equal entries are not always repeated. Where two headings read alike, the source gives them in different places.

The target in assay [1] is T1, troponin T (TnT) (Homo sapiens, UniProt P45379). Put plainly: Determination of Kd via k-ELISA (Friguet procedure, preincubation of phage with soluble TnT). Format: binding. As for the experimental part: During an ELISA experiment, as proposed by Friguet,[21] a constant concentration of phages is incubated with different concentrations of TnT. Saturation of phages (in solution) by soluble TnT limits the ability of phages to bind to immobilized TnT, and therefore, increasing concentration of TnT causes a decrease in signal from the phages, in our case, the M13. Theoretically, two options have to be discussed: (1) a signal (a) is generated for each phage with at least one unoccupied active site (eq 11) and (2) a signal (a) is generated proportionally to the total concentration of unoccupied active sites (eq 12). [drawing 21] 11 [drawing 22] 12
ELISA (also k-ELISA) can be used to measure the dissociation constant (Kd), which is commonly applied to describe affinity.[21] According to the mathematical model presented above, the Kd value can be calculated via pre-incubation of a receptor with varied concentrations of ligand and subsequent detection of the soluble receptor (phage) via ELISA. This approach was adapted and applied to evaluate the affinity of several phage-derived ligands[16]−[18] but without a theoretical analysis and fulfilling fundamental Friguet’s assumptions.[21] In these papers, phages were treated as monovalent receptors while they are tri to pentavalent (due to a varied number of pIII protein per phage particle). Moreover, the authors applied a wide range of ligand concentrations, high excess compared to the receptor and treated the concentration-signal function as logarithmic, while the discussion above concluded that it is not possible to apply Frigeut’s method for almost completely saturated receptors (due to ligand excess).
In our work, analysis was performed for clones: A3, B7, D11, and wild-type M13. […] The phages’ total concentration was about 1 × 10^10 pfu/mL (16 pM) and was carefully determined using the biological method immediately before analysis. The range of ratios of total TnT and total phage concentration was 1:2, 1:1, 2:1, and 4:1. […] As a result, a decrease in the ability to bind to immobilized TnT molecules occurs. Experimental data were analyzed according to the presented mathematical model.
The dissociation constant was calculated using k-ELISA, according to the procedure first described by Friguet.[21] Phages (∼10^10 pfu/mL corresponding to about 16 pM) were preincubated with different concentrations of TnT from 0 to 4 ng/mL (which corresponds to 108 pM). Next, mixtures were transferred into wells precoated with 0.25 μg/mL TnT (or BSA). Further steps were performed in the same manner as for phage concentration measuring experiments.
For orientation: ELISA stands for enzyme-linked immunosorbent assay.

Assay [2] has as its target T1, troponin T (TnT). It counts as binding.
In assay [3] the target is T1, troponin T (TnT). Put plainly: Bio-panning of Ph.D.-12 phage display library on TnT-coated plates. Format: binding. The note with it: after 3 rounds of bio-panning; number of proper sequences. The source says:
In each bio-panning round, the input and output phases were titrated immediately before or after the experiment. The presented mean p(O/I) value for each bio-panning round may be interpreted as the efficiency of phage binding. In chemical nomenclature, p(x) is defined as −log(x), so a higher p(O/I) means a lower ratio of phage output–input. The p(O/I) value for the first panning round is relatively low. However, usage of more concentrated Tween-20 (from 0.1 to 0.5%) causes a significant increase in p(O/I) values for the second round (around 4) despite a higher phage input. In addition, there is a difference between the second and the third p(O/I), which may be interpreted as an enrichment of TnT-binders in the phage pool, and it is the main aim of bio-panning via phage display. The increase in phage recovery yield is a widely reported observation by manufacturers and other authors.[14],[17],[35],[36]
Plate panning was performed regarding the general concept presented by Barbas et al.[60] with some modifications. Polystyrene plates were precoated with TnT and incubated overnight (18–24 h) in 100 μL of 20 μg/mL TnT solution in PBS at 4 °C. Then, the wells were emptied and filled with 100 μL of 0.1% BSA solution (in PBS) and incubated for 2 h in the fridge. Later, they were washed four times with PBST 0.1% (in the first panning round) and 0.5% in the next two. […]

The target in assay [4] is T1, troponin T (TnT). As to the kind of experiment: ELISA screening of isolated phage clones against TnT (BSA as negative control).
Procedure: It is worth mentioning that both TnT- and BSA-precoated wells were blocked with the same 0.1% BSA solution, so BSA was present in each well in significant excess.
ELISAs were performed in 96-well polystyrene plates (Thermo Scientific, USA). Wells were precoated with the desired protein by 16–20 h incubation of the protein suspension in PBS at 4 °C. In all assays, 1:5000 dilution of HRP-antiM13pVIII monoclonal antibody conjugate was used. Signals were recorded using Synergy HTX Multi-Mode Reader by BioTek.
In the initial screening, plates were precoated with troponin T or BSA (negative control) by incubating 100 μL of 1 μg/mL appropriate protein solution. Then plates were blocked with 0.1% BSA for 2 h at 4 °C and washed 4 times with 0.1% PBST. Every isolated phage clone solution (phages concentration 10^10 pfu/mL, 100 μL) was incubated with TnT and BSA for 1 h at 350 rpm at room temperature. Then wells were washed 4 times using 0.1% PBST, 100 μL of HRP-antibody conjugate was added, and plates were incubated as previously. After 1 h, plates were washed as before, and 50 μL of TMB was added. After 5 min, the reaction was stopped by adding 50 μL of 2 M sulfuric acid. Absorbance at 450 nm was read using a Synergy HTX Multi-Mode Reader (BioTek) plate reader.
[5] abbreviates: assumed stoichiometry 1:1, k-ELISA, phages ~10^10 pfu/mL (about 16 pM) preincubated with TnT 0 to 4 ng/mL, wells precoated 0.25 μg/mL TnT, 0.01% myoglobin blocking, absorbance 370 nm every 70 s for 10 min, linear slope regression, triplicate, phage-displayed peptide.
Setting [6] is: assumed stoichiometry 1:2, k-ELISA, phages ~10^10 pfu/mL (about 16 pM) preincubated with TnT 0 to 4 ng/mL, wells precoated 0.25 μg/mL TnT, 0.01% myoglobin blocking, absorbance 370 nm every 70 s for 10 min, linear slope regression, triplicate, phage-displayed peptide.

As usually defined, the Kd is the equilibrium constant for the complex coming apart. Lower therefore signals tighter binding. Take “B7: TnT-binding M13 phage clone displaying 12-amino-acid peptide (HRSMPTPLWYTA in Table 2) on pIII”: the Kd with troponin T (TnT) [1] (setting [5]) stood at 0.077 ± 0.013 nM; with troponin T (TnT) [1] (setting [6]), 0.166 ± 0.03 nM; in the assay with troponin T (TnT) [1] (assumed stoichiometry 1:5, k-ELISA, phages ~10^10 pfu/mL (about 16 pM) preincubated with TnT 0 to 4 ng/mL, wells precoated 0.25 μg/mL TnT, 0.01% myoglobin blocking, absorbance 370 nm every 70 s for 10 min, linear slope regression, triplicate, phage-displayed peptide), 0.143 ± 0.053 nM.
On to “D11: TnT-binding M13 phage clone displaying 12-amino-acid peptide (ALKIGPETTIYM in Table 2) on pIII”, for which the Kd with troponin T (TnT) [1] (setting [5]) was determined as 0.167 ± 0.007 nM; with troponin T (TnT) [1] (setting [6]), 0.216 ± 0.04 nM.
Consider DHAQRYGAGHSG [A3], for which the “nature of interaction with target” value on troponin T (TnT) [2] is “specific interaction with the studied target”. Further, in the assay with troponin T (TnT) [1], the Kd is 0.115 nM and 0.187 nM and 0.172 nM. Also, on troponin T (TnT) [3], the “frequency among sequenced clones” value is 4 out of 16 and 4/16. Further, the “ELISA signal TnT versus BSA / affinity in screening (in words)” value at troponin T (TnT) [4] is recorded as “highest affinity in screening”.
